Results taken from the supplement of paper PMC10567573.
± gives the standard deviation.

Test: protein stability index of a GFP-peptide fusion (GPS, HEK-293T) (PSI 1-6); higher = more stable
[1] = treatment: DMSO, c terminus: a fixed tail appended
[2] = treatment: MLN4924 1 uM, 8 h, c terminus: a fixed tail appended
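Also: 24-mer peptide tiles fused after GFP, lentivirally expressed, FACS-sorted into six equal bins by GFP/DsRed ratio, decoded by Illumina sequencing, PSI is the read-weighted mean bin number.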

| Sequence | protein stability index [1] | protein stability index [2] | protein stability index (treatment: DMSO, c terminus: native) | protein stability index (treatment: MLN4924 1 uM, 8 h, c terminus: native) |
| --- | --- | --- | --- | --- |
| QHSHVVRYFSAWAEDDHMLIQNEY [WEE1] | 2.22 ± 0.14 | 2.24 ± 0.12 | – | – |
| QIDAVGSKLKMLERKGWLAPSPGV [PKD2L1] | 3 ± 0.45 | 3.17 ± 0.22 | – | – |
| QIEKKEKKLHKIQNKAQRQKDLIM [TAF7L] | 3.64 ± 0.32 | 3.85 ± 0.28 | – | – |
| QKALYRRLATVHMSRMINKYKRRR [CLPTM1] | 3.7 ± 0.22 | 3.53 ± 0.16 | – | – |
| QKFRNQFLSFSMYQSFVQFLQYYY [TMEM120A] | 2.42 ± 0.21 | 2.41 ± 0.17 | – | – |
| QLDALPFFVITMIKIVLINSFGAI [SLC29A1] | 2.96 ± 0.54 | 3.31 ± 0.17 | – | – |
| QLPFCGPNVIDNFLCDLYPLLKLA [OR4A15] | 2.64 ± 0.66 | 2.47 ± 0.25 | – | – |
| QLQLKIIEIEDEAEKWQKEKDRIK [TRIM29] | 3.35 ± 0.24 | 3.6 ± 0.36 | – | – |
| QLRKQKKKTGKSSTTALGDKQRKA [ELOA2] | 4.73 ± 0.51 | 4.82 ± 0.39 | – | – |
| QQVPMPPGQEAQRVVCGIDSSMIL [NEK8] | 3.39 ± 0.29 | 3.5 ± 0.33 | – | – |
| QRAQAEVLQSVRELSRSRKLYGQR [FCHSD1] | 3.76 ± 0.2 | 3.85 ± 0.36 | – | – |
| QRDGSKSEDELDQASTPTDVRDID [CCND2] | 5.62 ± 0.16 | 5.62 ± 0.14 | – | – |
| QRDLSPTAEDAELSDFEECEETGE [FCHSD1] | 5.55 ± 0.21 | 5.54 ± 0.21 | – | – |
| QRFHEICSNLVKTRRRAVGWWKRL [ARL6IP1] | 2.22 ± 0.41 | 2.55 ± 0.62 | – | – |
| QSCWAFLPDLCLCRVFWWLGDRDR [FBXO39] | 2.2 ± 0.35 | 2.27 ± 0.36 | – | – |
| QSGRHLQTHSNTIVVSLQSKLASM [STX5] | 2.79 ± 0.36 | 2.97 ± 0.28 | – | – |
| QSMSQTRELLLDGGYLQRTTYDRR [RSPH3] | 3.85 ± 0.13 | 3.77 ± 0.052 | – | – |
| QTTTAYKKTHETLSHAGQKATAAF [TPD52L1] | 4.08 ± 0.34 | 3.98 ± 0.27 | – | – |
| QVGTLLFRSRSRLTHLSLSRRASE [CDC25B] | 2.93 ± 0.39 | 3 ± 0.13 | – | – |
| QVIHPQEFRRWRDTGVAFELRDSS [DNAAF3] | 3.29 ± 0.36 | 3.31 ± 0.32 | – | – |
| QVLNETRSQYEALVETNRREVEQW [KRT34] | 4.3 ± 0.22 | 4.6 ± 0.1 | – | – |
| QVNRRSAKGNTALHDCAESGSLEI [FEM1A] | 4.56 ± 0.049 | 4.26 ± 0.21 | – | – |
| QWLQSTSGSQRHMVGQKDSVILSV [TLE6] | 2.12 ± 0.093 | 2.29 ± 0.27 | – | – |

| Sequence | protein stability index [1] | protein stability index [2] | protein stability index (treatment: DMSO, c terminus: native) | protein stability index (treatment: MLN4924 1 uM, 8 h, c terminus: native) |
| --- | --- | --- | --- | --- |
| QWRIRNLPYPKDVYSVSVDQKERC [DPCD] | 3.32 ± 0.42 | 3.17 ± 0.21 | – | – |
| RAAAAAAVAAATAAVEGSGGSGGG [KCNA4] | 4.88 ± 0.26 | 4.9 ± 0.28 | – | – |
| RADQLCQQELRELRRELELLGRER [PRPH] | 3.45 ± 0.17 | 3.37 ± 0.56 | – | – |
| RAILKPRKVCVGGKRRKDEISVDS [PPP2R2B] | 3.85 ± 0.19 | 4.1 ± 0.12 | – | – |
| RAKVQPQARKKEMEMRQLQRGPA [CPN1] | – | – | 3.26 ± 0.43 | 3.11 ± 0.18 |
| RAVRQSVTSFPDADAFHHQVHDDD [EMD] | 5.2 ± 0.17 | 5.314 ± 0.044 | – | – |
| RAWSQCGGGGLRAWSQRSAAGRVC [CPOX] | 2.71 ± 0.077 | 2.88 ± 0.37 | – | – |
| RCPVTVCGDVHGQFHDLMELFRIG [PPP2CA] | 2.2 ± 0.35 | 2.24 ± 0.14 | – | – |
| RDIRCSEDEKLCDPNTRPVGEKNC [ADAMTSL2] | 5.18 ± 0.28 | 5.35 ± 0.22 | – | – |
| RDLPDTPRRFTFYPCVLATEGFTS [TRIM39] | 2.56 ± 0.21 | 2.5 ± 0.2 | – | – |
| RDMNGKSLDGKAIKVEQATKPSFE [RBMX] | 5.08 ± 0.24 | 5.24 ± 0.27 | – | – |
| RDRLLNRYRQAGSSGPGNSQNSFL [RPAIN] | 3.36 ± 0.32 | 3.56 ± 0.38 | – | – |
| RDSESTRHDSETEDMLWDDLLHGP [PHTF1] | 5.49 ± 0.31 | 5.4 ± 0.2 | – | – |
| REHKETCEMDWSDKMEAYNIDETC [TEKT4] | 5.26 ± 0.19 | 5.14 ± 0.077 | – | – |
| RERREEDRAPAEQVPRSPVIKISY [PWWP2B] | 4.34 ± 0.34 | 4.08 ± 0.18 | – | – |
| RESPSFKLEPMETERSPGPRLQEL [ZNF263] | 4.42 ± 0.14 | 4.51 ± 0.2 | – | – |
| RFNQAILVSRHDPASRRRVVEEVR [LPCAT4] | 3.62 ± 0.25 | 3.59 ± 0.29 | – | – |
| RFRDFVDALEDSLEEVAVQQTGDD [PBXIP1] | 4.87 ± 0.44 | 4.9 ± 0.27 | – | – |
| RGDSGRLGLGTRESHSCPQQVPMP [NEK8] | 4.07 ± 0.18 | 4.19 ± 0.28 | – | – |
| RGGMLSASAETLPAGFRVSTLGTL [PPFIA4] | 3.26 ± 0.14 | 3.57 ± 0.49 | – | – |
| RGGSDPETTGIQIWSEVFTVEKPG [ATL3] | 4 ± 0.59 | 4.09 ± 0.28 | – | – |
| RGGSLLAGGGGFGGGSLSGGGGSR [KRT15] | 3.32 ± 1.1 | 3.95 ± 0.34 | – | – |
| RGIHNIQKRYHCKECGKVFSQSAG [ZSCAN9] | 2.58 ± 0.27 | 2.78 ± 0.24 | – | – |

| Sequence | protein stability index [1] | protein stability index [2] | protein stability index (treatment: DMSO, c terminus: native) | protein stability index (treatment: MLN4924 1 uM, 8 h, c terminus: native) |
| --- | --- | --- | --- | --- |
| RGLSQNLFSNSDHQRDGTLGALHT [SASS6] | 3.87 ± 0.26 | 3.81 ± 0.17 | – | – |
| RHCPYLDTINRSVLDFDFEKLCSI [USP39] | 2.61 ± 0.23 | 2.56 ± 0.3 | – | – |
| RIHVLPSLNPDGYEKAYEGGSELG [CPXM2] | 3.93 ± 0.11 | 4.36 ± 0.36 | – | – |
| RIVHLQETCDLGKIKPEARRYLEK [NLN] | 3.25 ± 0.51 | 3.66 ± 0.67 | – | – |
| RKGLQHGFFDFETFDVDEYEHYER [CDC14A] | 3.93 ± 0.31 | 3.94 ± 0.41 | – | – |
| RKQKQELCEKFDYLYGILEERKNE [TRIM55] | 3.72 ± 0.36 | 3.67 ± 0.54 | – | – |
| RKSLFDDKAVEIEELTYIIKQDIN [STX5] | 2.9 ± 0.18 | 2.76 ± 0.31 | – | – |
| RKTQKKVPDVKEMEKSSFTEYIES [TAF7L] | 4.43 ± 0.13 | 4.47 ± 0.27 | – | – |
| RLDKHLYVIGGRNETGYLSSVECY [KLHL14] | 2.28 ± 0.17 | 2.14 ± 0.2 | – | – |
| RLLLDSGAQVNMPADSFESPLTLA [ANKRD17] | 3.44 ± 0.23 | 3.46 ± 0.41 | – | – |
| RLQCPFEQELLRRQQRLNQLEKPP [FAM107A] | 3.93 ± 0.33 | 4.14 ± 0.18 | – | – |
| RNGHAKVVRLLLEHYRVQTQQTGT [FEM1B] | 2.32 ± 0.21 | 2.3 ± 0.28 | – | – |
| RNLDASPTYKGLLMSLQNQLKESK [CEP70] | 3.19 ± 0.083 | 3.36 ± 0.25 | – | – |
| RNQTQVLRQQQDEAYLASLRADQE [FAF2] | 5.18 ± 0.32 | 5.17 ± 0.16 | – | – |
| RPAFVRVRRGHSHLAPSEAKAADS | 4.35 ± 0.1 | 4.45 ± 0.16 | – | – |
| RPASSGGAHTLVNHGYAEPAAGRE [KCNA3] | 4.7 ± 0.44 | 4.86 ± 0.23 | – | – |
| RPNSRHTPSFSGDSSSSCSDHCIT [VDR] | 4.52 ± 0.086 | 4.45 ± 0.25 | – | – |
| RQSVENDIHGLRKVIDDTNITRLQ [KRT18] | 4.17 ± 0.22 | 4.13 ± 0.25 | – | – |
| RRFNFFVLENNLEAVARHMLIFSL [DNAAF3] | 2.77 ± 0.49 | 2.6 ± 0.47 | – | – |
| RRGSTPLHMAVERRVRGVVELLLA [RIPK4] | 2.9 ± 0.085 | 2.67 ± 0.045 | – | – |
| RRGWRPSSREDSLEAGLPLQVRGY [CHGA] | 3.42 ± 0.47 | 3.8 ± 0.27 | – | – |
| RRHRLGGVGAVPGPGTPTGPSLPS [ZBTB22] | 4.25 ± 0.22 | 4.47 ± 0.16 | – | – |
| RRLYEKKIFEYETQRRRLSPPSSS [EMD] | 3.25 ± 0.26 | 3.35 ± 0.48 | – | – |

| Sequence | protein stability index [1] | protein stability index [2] | protein stability index (treatment: DMSO, c terminus: native) | protein stability index (treatment: MLN4924 1 uM, 8 h, c terminus: native) |
| --- | --- | --- | --- | --- |
| RRVGGSRILLRMTLGREVMSPLQA [NLN] | 2.15 ± 0.32 | 2.34 ± 0.35 | – | – |
| RSDADLVVFLSPLTTFQDQLNRRG [OAS1] | 2.27 ± 0.22 | 2.33 ± 0.31 | – | – |
| RSELVEGCGWRCPEHGDRVAELFC [TRIM14] | 2.86 ± 0.12 | 3.04 ± 0.36 | – | – |
| RSERKKWIHCFEGVTAIIFCVALS [GNAI1] | 3.21 ± 0.4 | 2.89 ± 0.8 | – | – |
| RSPRAGAGALLRLPSERLDFSMAE [PRPH] | 4.17 ± 0.17 | 4.21 ± 0.29 | – | – |
| RSQYEALVETNRREVEQWFATQTE [KRT34] | 4.29 ± 0.25 | 4.33 ± 0.33 | – | – |
| RSSPDDLKALTRNVNRLNESFRDL [SCARA5] | 3.95 ± 0.34 | 3.88 ± 0.32 | – | – |
| RTCTAPLDRLKVLMQVHASRSNNM [SLC25A25] | 2.68 ± 0.2 | 2.81 ± 0.21 | – | – |
| RTHTGEQPYTCSICRRNFSRRSSL [ZNF75A] | 3.19 ± 0.44 | 3.67 ± 0.47 | – | – |
| RTSLSSGATVRSFSINSRLASSLG [CDC14A] | 2.76 ± 0.34 | 2.99 ± 0.48 | – | – |
| RTSTFDPSHSDNLLHGLNLLWRKQ [KLHL14] | 2.96 ± 0.17 | 2.94 ± 0.15 | – | – |
| RVDQDKDKDCSLDCAGSPQKPLCA [SMOC2] | 5.39 ± 0.34 | 5.31 ± 0.32 | – | – |
| RYISMSVWTSPRRLVELAGQSLLK [PRAME] | 2.89 ± 0.1 | 2.96 ± 1.2 | – | – |
| RYLADLLPSVFGSLRDSGYFYDPI [RSPH3] | 2.55 ± 0.49 | 2.6 ± 0.66 | – | – |
| SAGGSRTPAMSSSSSSRVLLRQQL [TFE3] | 3.45 ± 0.24 | 3.32 ± 0.19 | – | – |
| SASSPASVGDPCGGAICGGPDHRL [SLC25A25] | 4.43 ± 0.23 | 4.58 ± 0.22 | – | – |
| SATALYRTDYSGRGELSARQMHLA [RAD51] | 3.26 ± 0.19 | 3.33 ± 0.21 | – | – |
| SDPENWDRKLHSRPRKLYKHSSTS [BTBD10] | 3.77 ± 0.27 | 3.94 ± 0.24 | – | – |
| SEDRRSRHCPYLDTINRSVLDFDF [USP39] | 3.18 ± 0.074 | 3.44 ± 0.3 | – | – |
| SEFRALQFSLMLCAFVGALGGAAF [SPNS1] | 3.14 ± 0.048 | 3.04 ± 0.79 | – | – |
